According to US20240117035A1:

Legend:
[1] = target: human CLDN18.2 on cells (human) (UniProt P56856); assay: flow cytometry on SNU601 cells
[2] = target: human CLDN18.2 on cells (human) (UniProt P56856); assay: flow cytometry on hCLDN18.2-expressing HEK293 cells

IC50 [1]: 0.811 µg/mL
IC50 [2]: 0.701 µg/mL
B1: m-anti-human CLDN18.2-13 monoclonal antibody (antibody, mouse IgG2a, kappa, V domains shown)
VH: QLQLQQSGTELVRPGSSVKISCKASGYAFSNYWMNWVKQRPGQGLEWIGQIYPGNGDTKYNGNFKGKATLTADKSSSTAYMQLSSLTSEDSADYFCARYYRGNCFDYWGQGTTLTVSS
VL: DIVLTQSPSSLTVTAGEKVTMSCKSSQSLLNSGNQKNYLTWYQQKPGQPPKLLIYWASTRDSGVPARFTGSGSGTDFTLTINSVQAEDLAVYYCQNAYTYPLTFGAGTKLEIKR
